Results on 31 sequences are retold here after the supplement of paper PMC9170038.

The test system of the data set is MS2 coat protein. As to the kind of experiment: apparent KD of MS2 coat protein; designed switch direction (-1 OFF switch, 1 ON switch): -1; higher = weaker reporter binding. Put shortly:
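The buffer was Tris-HCl pH 7.5 with KCl, MgCl2, BSA, DTT, tRNA and Tween-20. In it, SNAP-549-labelled MS2 coat protein was titrated in doubling steps from 0.7 or 1.5 nM to 3 µM over chip-bound RNA switches transcribed by stalled E. coli RNA polymerase on Illumina chips. Apparent KD is the per-design median over clusters of curve fits to normalised fluorescence.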

Where [1] appears, read: Eterna round: R95, input ligand: FMN 200 uM.
Setting [2] is: Eterna round: R95, input ligand: microRNA oligo, concentration not stated.
Setting [3] is: Eterna round: R95, input ligand: none.
[4] abbreviates: input ligand: microRNA oligo, concentration not stated.

For the sequence “AUGUUGCGAGGAUAUAUAAGGGUAUAAUAAUAAGAUAUGGAACAUGAGGAUCACCCAUGUAGAAGGUGCAUAAC [JR_Ex2_Sub040] (Eterna round: R97, puzzle: Exclusion 2)”, the “apparent KD of MS2 coat protein” value is, setting by setting: (input ligand: FMN 200 uM) 840 nM; (input ligand: none) 21.1 nM.
On the same counts, the results for “AUGUUGCGAGGAUAUAUUUACUUGUUGUUAUUUGGUUGGGAACAUGAGGAUCACCCAUGUAGAAGGUGCAUAAC [JR_Ex2_Sub035] (Eterna round: R97, puzzle: Exclusion 2)” are 58.9 nM and 62.5 nM.
“AUUAAAACAUAGGAUAUCGAAAUUAUUAUUUAACGAGAAGGAUGAACAUGAGGAUCACCCAUGUGGUAUCAUGG [Mat - Exclusion 6 - JL Mod - D28] (puzzle: Exclusion 6)”: the “apparent KD of MS2 coat protein” value by setting is: under setting [1], 307 nM; under setting [2], 367 nM; under setting [3], 610 nM.
On to “AUUAUGUUAGGAUAUGCUUAUGGUGGAUAAUCGGAUAUGAUGCAGAAGGGACAUGAGGAUCACCCAUGUACUGA [EX4 #24] (Eterna round: R97, puzzle: Exclusion 4)”, for which the “apparent KD of MS2 coat protein” value reads like this: (input ligand: FMN 200 uM) 22.3 nM; (input ligand: none) 22.7 nM.
On the same counts, the results for “AUUAUGUUAGGAUAUGCUUAUGGUGGAUAGUCCAGUAUGGUGUAGAAGGGACAUGAGGAUCACCCAUGUGCUGA [EX4 #33] (Eterna round: R97, puzzle: Exclusion 4)” are 35.2 nM and 34 nM.
On to “AUUGUAUGGAAAGGAUAUAGAAUAUUAUUUUAACAUGAGGAUCACCCAUGUAACCUUAUGUGUAGCUAGAAGGUUCGUUUGUUA [Title] (Eterna round: R96, puzzle: Exclusion NG 2)”, for which, under setting [4], the “apparent KD of MS2 coat protein” value worked out at 69.2 nM.
For the sequence “AUUGUGUUAGGAUAUAACAACUACUAAUAAAUUAGUAGUUGUUAGAAGGAACAUGAGGAUCACCCAUGUAUGAU [-21.1, -20.3 kcal, A 38%] (Eterna round: R97, puzzle: Exclusion 4)”, the “apparent KD of MS2 coat protein” value (input ligand: FMN 200 uM) is 60 nM and the “apparent KD of MS2 coat protein” value (input ligand: none) is 29.4 nM.
“AUUGUGUUAGGAUAUGCUUAUGGUGGGUAGUCCAGUAUGGAGUAGAAGGGACAUGAGGAUCACCCAUGUGCUCA [EX4 #38] (Eterna round: R97, puzzle: Exclusion 4)”: the “apparent KD of MS2 coat protein” value is 215 nM (input ligand: FMN 200 uM) and 137 nM (input ligand: none).
Consider “AUUGUUUAUGUAGGAUAUGCCUGGCGUGCCUUCGCAGAAGGACAUGAGGAUCACCCAUGUAUUGCGGUCUGCGUUCAGAUCGCC [salish99_ExNG1_r4_027] (Eterna round: R96, puzzle: Exclusion NG 1)”, for which the “apparent KD of MS2 coat protein” value is, setting by setting: (input ligand: FMN 200 uM) 21.3 nM; under setting [4], 15 nM; (input ligand: none) 19.3 nM.
The matching figures for “AUUGUUUAUGUAGGAUAUGCCUGGCGUGCCUUUGCAGAAGGACAUGAGGAUCACCCAUGUAACAUGAGGCUCACCCAUGUCGCU [salish99_ExNG1_r04_112] (Eterna round: R96, puzzle: Exclusion NG 1)”: 432 nM, 220 nM and 311 nM.
For the sequence “AUUUAAUUUAGCGAGAUCACAUGAGGAUCACCCAUGUAUAUAUAGGAUAUCAGCUCGUUUAGAGCUGAGAAGGAUAUAUACCGC [ExNG3/7-A2] (Eterna round: R96, puzzle: Exclusion NG 3)”, the “apparent KD of MS2 coat protein” value under setting [4] was 74 nM.
Take “AUUUGCACGCUGCGGUCCUACAUGAGGAUCACCCAUGUGGUCUGGUGGCGUGGGUCGCCGGACUUGGCUCGUCUUGA [salish99_S_TOV1_R5_032] (Eterna round: R97, puzzle: Sensor, turn-off variant 1)”: the “apparent KD of MS2 coat protein” value came to 17.5 nM (input ligand: FMN 200 uM) and 17.9 nM (input ligand: none).
In the case of “AUUUUAAUAUAGGAUAUCGAAUUUAUUAUUUAACGAGAAGGAUGAACAUGAGGAUCACCCAUGUGGUAUCAUGG [JL-ex6-3.03] (puzzle: Exclusion 6)”, the “apparent KD of MS2 coat protein” value under setting [1] stood at 214 nM, the “apparent KD of MS2 coat protein” value under setting [2] was determined as 263 nM and the “apparent KD of MS2 coat protein” value under setting [3] stood at 178 nM.
Take “AUUUUGUCAGGAUAUGACUAGUAGCACGAAAGUGCUACUACUUAGAAGGGACAUGAGGAUCACCCAUGUAUUCC [Bring Us a Shrubbery-10] (puzzle: Exclusion 4)”: the “apparent KD of MS2 coat protein” value under setting [2] was found to be 15.1 nM.
Turning to “AUUUUGUCAGGAUAUUGUUAGUUUAGUUGUUUGUAUUAGUUCGAGAAGGGACAUGAGGAUCACCCAUGUGAAAA [Ex4 #71] (Eterna round: R97, puzzle: Exclusion 4)”, the “apparent KD of MS2 coat protein” value (input ligand: FMN 200 uM) came out at 38.9 nM and the “apparent KD of MS2 coat protein” value (input ligand: none) came to 37.2 nM.
On the same counts, the results for “CAAAAGAAAGGAUAUACUUGAGGAUCACCCAAGUAUGCCCGCUGAAGCGGGCCCUUGAGUAGAAGGUUCAUAAA [Ened] (Eterna round: R97, puzzle: Exclusion 3)” are 33.2 nM and 15.6 nM.
On the same counts, the results for “CAAAAGCUAGGAUAUACAUGAGGAUCACCCAUGUCGCACUCUAGACACGCCAUACAUAGUAGAAGGAGCAAUCU [EX3 B.18] (Eterna round: R97, puzzle: Exclusion 3)” are 21.7 nM and 17.9 nM.
In the case of “CAAGCAGAAUAAAGGUCCGACAUGAGGAUCACCCAUGUUCGUCGGGAUAUGCUUCCUUUACGAGGGAGCACCAGAAA [Eternabot (L2) Solution 25] (Eterna round: R97, puzzle: Sensor, turn-off variant 1)”, the “apparent KD of MS2 coat protein” value is 34.3 nM (input ligand: FMN 200 uM) and 38.2 nM (input ligand: none).
“CAAUAUUACUGAGGAUAUCCUAGUGUAUUUCAGGGAGAAGGCGGACUCAACAUGAGGAUCACCCAUGUAAGACGGGUACUAGAU [Ex NG1 #17] (Eterna round: R96, puzzle: Exclusion NG 1)”: the “apparent KD of MS2 coat protein” value (input ligand: FMN 200 uM) came to 89.3 nM, the “apparent KD of MS2 coat protein” value under setting [4] was found to be 42.7 nM and the “apparent KD of MS2 coat protein” value (input ligand: none) was 81.4 nM.
The matching figures for “CACAUGGGAACAUGAGGAUCACCCAUGUGAUAGAAAGGUAUGGAGGAUAUCAUACCAUCGCCGUGUGAGAAGGUCAGGCCAACA [Eternabot solution 46] (Eterna round: R96, puzzle: Exclusion NG 3)”: 409 nM, 151 nM and 388 nM.
The matching figures for “CACCGUUAACUAGGAUAUCGUACAUGAGGAUCACCCAUGUAAUAAAUGAGAAUUUCGGAUGUAUGCGAGAAGGAGUAAAUCGGC [Ostricism 46 - Jieux - Exclusion NG 2] (Eterna round: R96, puzzle: Exclusion NG 2)”: 40.8 nM, 27.6 nM and 37.3 nM.
The matching figures for “CACCGUUACACAGGAUAUGUUACAUGAGGAUCACCCAUGUAAUAAAUGAGAAUUUCGAAUGUAAUACAGAAGGGUGGAAUCGGC [Ostricism 73 - Jieux - Exclusion NG 2] (Eterna round: R96, puzzle: Exclusion NG 2)”: 34.7 nM, 27.9 nM and 28.4 nM.
On to “CACCGUUACAGAGGAUAUGAUACAUGAGGAUCACCCAUGUAAUAAAUGAGAAUUUCGAAUGUACCUCAGAAGGCUGGAACCGGC [Ostricism 79 - Jieux - Exclusion NG 2] (Eterna round: R96, puzzle: Exclusion NG 2)”, for which the “apparent KD of MS2 coat protein” value under setting [4] was determined as 31.1 nM.
The same measure, in the same setting: next, “CACCGUUACGUAGGAUAUAGUACAUGAGGAUCACCCAUGUAAUAAAUGAGAAUUUCGGAUGUAUGCUAGAAGGACGAAAUCGGC [Ostricism 50 - Jieux - Exclusion NG 2] (Eterna round: R96, puzzle: Exclusion NG 2)”: 39.9 nM.
The same measure, in the same setting: for “CACCGUUAGUGAGGAUAUAGUACAUGAGGAUCACCCAUGUAAUAAAUGAGAAUUUCGGAUGUAUGCUAGAAGGCACAAAUCGGC [Ostricism 51 - Jieux - Exclusion NG 2] (Eterna round: R96, puzzle: Exclusion NG 2)” the value was 47.2 nM.
In the case of “CACGAAGAGUGAGGAUAUGUGCGACAAAGUUGCACAGAAGGCACAUGAGGAUCACCCAUGUAAGCUAGGUCGAAAGACCUAGCG [Omei Exc(NG)1 Av3] (Eterna round: R96, puzzle: Exclusion NG 1)”, the “apparent KD of MS2 coat protein” value reads like this: (input ligand: FMN 200 uM) 47.5 nM; under setting [4], 20.2 nM; (input ligand: none) 23.8 nM.
As to “CACGUGAUUGGGCUCAUUAACAUGAGGAUCACCCAUGUGUGUGUUUUAGGAUGCCCACAAGCUUUUUCGCCGUCUAG [Eternabot (L1) Solution 3] (Eterna round: R97, puzzle: Sensor, turn-off variant 1)”, the “apparent KD of MS2 coat protein” value amounted to 51 nM (input ligand: FMN 200 uM) and 64.8 nM (input ligand: none).
As to “CAGCCCUGAGGAUAUCCAUCCUCGUACAUGAGGAUCACCCAUGUCUCCCUCUGGGCUUUCGGAGAAGGCAGGUAUC [Megrez-6.1] (Eterna round: R97, puzzle: Exclusion 5)”, the “apparent KD of MS2 coat protein” value turned out to be 743 nM (input ligand: FMN 200 uM) and 976 nM (input ligand: none).
For the sequence “CAGCCCUGAGGAUAUCCCUACUUGCACAUGAGGAUCACCCAUGUCCUCCUCCGGGCUUCGGGAGAAGGCAGGUCUC [Megrez-7.5] (Eterna round: R97, puzzle: Exclusion 5)”, the “apparent KD of MS2 coat protein” value (input ligand: FMN 200 uM) turned out to be 23.8 nM and the “apparent KD of MS2 coat protein” value (input ligand: none) worked out at 17 nM.
“CAGCGAACAGGAUAUACAUGAGGAUCACCCAUGUGUUCCAGCUAGGAAACUAGCAAAUGUAGAAGGGUUCGCUG [Mat - Exclusion 3 - JL Mod - D2] (Eterna round: R97, puzzle: Exclusion 3)”: the “apparent KD of MS2 coat protein” value stood at 584 nM (input ligand: FMN 200 uM) and 324 nM (input ligand: none).
Consider “CAGCUGAAAGUGAGGAUAUCUAGAGCCUCGGCUCUAGAGAAGGCACAUGAGGAUCACCCAUGUCUCAACAGCUG [BmEx4/1-A2] (Eterna round: R97, puzzle: Brourd's mod of Exclusion 4)”, for which the “apparent KD of MS2 coat protein” value stood at 67.1 nM (input ligand: FMN 200 uM) and 19.6 nM (input ligand: none).
